Reference: IntAct's records for PubMed 31515488

B1: Syntenin-2 (Homo sapiens), Q9H190 (parent)
chain: MSSLYPSLEDLKVDQAIQAQVRASPKMPALPVQATAISPPPVLYPNLAELENYMGLSLSSQEVQESLLQIPEGDSTAVSGPGPGQMVAPVTGYSLGVRRAEIKPGVREIHLCKDERGKTGLRLRKVDQGLFVQLVQANTPASLVGLRFGDQLLQIDGRDCAGWSSHKAHQVVKKASGDKIVVVVRDRPFQRTVTMHKDSMGHVGFVIKKGKIVSLVKGSSAARNGLLTNHYVCEVDGQNVIGLKDKKIMEILATAGNVVTLTIIPSVIYEHMVKKLPPVLLHHTMDHSIPDA
partner: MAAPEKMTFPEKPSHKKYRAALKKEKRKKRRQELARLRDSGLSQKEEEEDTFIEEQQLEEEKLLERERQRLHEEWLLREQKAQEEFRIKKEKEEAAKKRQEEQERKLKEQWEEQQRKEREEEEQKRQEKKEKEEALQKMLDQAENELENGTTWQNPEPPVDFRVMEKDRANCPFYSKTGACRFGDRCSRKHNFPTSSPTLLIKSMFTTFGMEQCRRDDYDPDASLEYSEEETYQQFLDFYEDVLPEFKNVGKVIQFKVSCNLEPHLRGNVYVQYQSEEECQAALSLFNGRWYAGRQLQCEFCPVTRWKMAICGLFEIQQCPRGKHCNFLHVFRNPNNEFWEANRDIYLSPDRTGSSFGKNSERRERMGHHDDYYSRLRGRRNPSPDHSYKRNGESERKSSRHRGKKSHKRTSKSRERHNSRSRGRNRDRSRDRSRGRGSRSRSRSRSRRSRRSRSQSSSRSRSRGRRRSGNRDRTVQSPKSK
B2: Acylamino-acid-releasing enzyme (Homo sapiens), P13798 (parent)
chain: MERQVLLSEPEEAAALYRGLSRQPALSAACLGPEVTTQYGGQYRTVHTEWTQRDLERMENIRFCRQYLVFHDGDSVVFAGPAGNSVETRGELLSRESPSGTMKAVLRKAGGTGPGEEKQFLEVWEKNRKLKSFNLSALEKHGPVYEDDCFGCLSWSHSETHLLYVAEKKRPKAESFFQTKALDVSASDDEIARLKKPDQAIKGDQFVFYEDWGENMVSKSIPVLCVLDVESGNISVLEGVPENVSPGQAFWAPGDAGVVFVGWWHEPFRLGIRFCTNRRSALYYVDLIGGKCELLSDDSLAVSSPRLSPDQCRIVYLQYPSLIPHHQCSQLCLYDWYTKVTSVVVDVVPRQLGENFSGIYCSLLPLGCWSADSQRVVFDSAQRSRQDLFAVDTQVGTVTSLTAGGSGGSWKLLTIDQDLMVAQFSTPSLPPTLKVGFLPSAGKEQSVLWVSLEEAEPIPDIHWGIRVLQPPPEQENVQYAGLDFEAILLQPGSPPDKTQVPMVVMPHGGPHSSFVTAWMLFPAMLCKMGFAVLLVNYRGSTGFGQDSILSLPGNVGHQDVKDVQFAVEQVLQEEHFDASHVALMGGSHGGFISCHLIGQYPETYRACVARNPVINIASMLGSTDIPDWCVVEAGFPFSSDCLPDLSVWAEMLDKSPIRYIPQVKTPLLLMLGQEDRRVPFKQGMEYYRALKTRNVPVRLLLYPKSTHALSEVEVESDSFMNAVLWLRTHLGS
B3: Notch homolog 2 N-terminal-like protein A (Homo sapiens), Q7Z3S9 (parent)
chain: MCVTYHNGTGYCKCPEGFLGEYCQHRDPCEKNRCQNGGTCVAQAMLGKATCRCASGFTGEDCQYSTSHPCFVSRPCLNGGTCHMLSRDTYECTCQVGFTGKECQWTDACLSHPCANGSTCTTVANQFSCKCLTGFTGQKCETDVNECDIPGHCQHGGTCLNLPGSYQCQCLQGFTGQYCDSLYVPCAPSPCVNGGTCRQTGDFTFECNCLPETVRRGTELWERDREVWNGKEHDEN
partner: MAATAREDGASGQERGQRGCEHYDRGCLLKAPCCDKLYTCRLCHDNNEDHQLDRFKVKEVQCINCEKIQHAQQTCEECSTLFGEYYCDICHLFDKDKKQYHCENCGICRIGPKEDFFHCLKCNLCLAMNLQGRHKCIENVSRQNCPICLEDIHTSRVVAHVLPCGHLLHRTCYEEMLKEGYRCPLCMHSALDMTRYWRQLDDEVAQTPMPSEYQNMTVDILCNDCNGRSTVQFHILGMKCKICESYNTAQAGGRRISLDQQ
B4: Mannose-1-phosphate guanylyltransferase regulatory subunit alpha (Homo sapiens), Q96IJ6 (parent)
chain: MLKAVILIGGPQKGTRFRPLSFEVPKPLFPVAGVPMIQHHIEACAQVPGMQEILLIGFYQPDEPLTQFLEAAQQEFNLPVRYLQEFAPLGTGGGLYHFRDQILAGSPEAFFVLNADVCSDFPLSAMLEAHRRQRHPFLLLGTTANRTQSLNYGCIVENPQTHEVLHYVEKPSTFISDIINCGIYLFSPEALKPLRDVFQRNQQDGQLEDSPGLWPGAGTIRLEQDVFSALAGQGQIYVHLTDGIWSQIKSAGSALYASRLYLSRYQDTHPERLAKHTPGGPWIRGNVYIHPTAKVAPSAVLGPNVSIGKGVTVGEGVRLRESIVLHGATLQEHTCVLHSIVGWGSTVGRWARVEGTPSDPNPNDPRARMDSESLFKDGKLLPAITILGCRVRIPAEVLILNSIVLPHKELSRSFTNQIIL
B5: Origin recognition complex subunit 6 (Homo sapiens), Q9Y5N6 (parent)
chain: MGSELIGRLAPRLGLAEPDMLRKAEEYLRLSRVKCVGLSARTTETSSAVMCLDLAASWMKCPLDRAYLIKLSGLNKETYQSCLKSFECLLGLNSNIGIRDLAVQFSCIEAVNMASKILKSYESSLPQTQQVDLDLSRPLFTSAALLSACKILKLKVDKNKMVATSGVKKAIFDRLCKQLEKIGQQVDREPGDVATPPRKRKKIVVEAPAKEMEKVEEMPHKPQKDEDLTQDYEEWKRKILENAASAQKATAE
partner: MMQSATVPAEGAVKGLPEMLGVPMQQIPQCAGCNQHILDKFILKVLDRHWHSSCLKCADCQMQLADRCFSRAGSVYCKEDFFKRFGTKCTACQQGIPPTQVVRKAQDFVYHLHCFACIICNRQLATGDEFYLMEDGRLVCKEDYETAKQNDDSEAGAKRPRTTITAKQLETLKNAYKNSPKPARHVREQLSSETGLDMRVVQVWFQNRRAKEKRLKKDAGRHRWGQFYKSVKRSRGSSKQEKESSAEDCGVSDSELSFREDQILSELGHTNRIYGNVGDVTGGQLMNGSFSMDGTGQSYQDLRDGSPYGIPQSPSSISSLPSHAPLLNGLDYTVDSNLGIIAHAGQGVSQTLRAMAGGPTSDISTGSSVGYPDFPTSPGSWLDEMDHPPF
B6: ATPase PAAT (Homo sapiens), Q9H8K7 (parent)
chain: METRTEDGGLTRRPTLASSWDVAGGALTHSLLLTRAGLGPGDFDWEELLAPPAPGQDLVILKRNHNNKDENPCFLYLRCGPDGGEEIASIGILSSARNMEVYLGEEYCGTSRGKNVCTVLDDSEHEKIILYKKNLKLESSTHACKIKLLSFGERQCVFISKVVVHMRSVFANSSTSSPALGSRIDLDKVQTIMESMGSKLSPGAQQLMDMVRCQQRNCIPIGEQLQSVLGNSGYKHMIGLQSSSTLGTLNKSSSTPFPFRTGLTSGNVTENLQTYIDKSTQLPGGENSTKLDECKVMPQNHSFLENDLKNAMASFLPKKVSDNSNIPNSELLPFLQNLCSQVNHLHVGNKTECQENITKHGERILGVGMEEQSICSYLEKILSKNMELMEKKLMDYIDQRIHELQEHIDDKIALLLDLLQNPNSPPTGIPLRHYDSGERLSNGER
partner: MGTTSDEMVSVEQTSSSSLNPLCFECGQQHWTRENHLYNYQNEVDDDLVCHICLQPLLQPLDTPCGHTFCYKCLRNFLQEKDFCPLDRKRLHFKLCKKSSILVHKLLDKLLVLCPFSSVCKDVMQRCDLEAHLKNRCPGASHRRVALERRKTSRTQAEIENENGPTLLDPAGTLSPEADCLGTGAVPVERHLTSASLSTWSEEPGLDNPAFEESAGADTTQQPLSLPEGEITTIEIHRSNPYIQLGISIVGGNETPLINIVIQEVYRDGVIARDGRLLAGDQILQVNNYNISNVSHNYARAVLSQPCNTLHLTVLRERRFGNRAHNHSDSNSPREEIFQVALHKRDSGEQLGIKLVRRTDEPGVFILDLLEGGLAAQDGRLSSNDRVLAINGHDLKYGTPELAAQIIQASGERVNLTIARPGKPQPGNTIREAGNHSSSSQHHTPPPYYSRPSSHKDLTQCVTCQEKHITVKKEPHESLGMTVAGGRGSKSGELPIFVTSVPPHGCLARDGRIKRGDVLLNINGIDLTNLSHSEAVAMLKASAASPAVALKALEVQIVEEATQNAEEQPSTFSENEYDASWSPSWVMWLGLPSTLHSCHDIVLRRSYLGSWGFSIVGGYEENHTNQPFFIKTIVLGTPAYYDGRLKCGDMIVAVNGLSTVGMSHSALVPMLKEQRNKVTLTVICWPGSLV
B7: Radial spoke head 1 homolog (Homo sapiens), Q8WYR4 (parent)
chain: MSDLGSEELEEEGENDIGEYEGGRNEAGERHGRGRARLPNGDTYEGSYEFGKRHGQGIYKFKNGARYIGEYVRNKKHGQGTFIYPDGSRYEGEWANDLRHGHGVYYYINNDTYTGEWFAHQRHGQGTYLYAETGSKYVGTWVNGQQEGTAELIHLNHRYQGKFLNKNPVGPGKYVFDVGCEQHGEYRLTDMERGEEEEEEELVTVVPKWKATQITELALWTPTLPKKPTSTDGPGQDAPGAESAGEPGEEAQALLEGFEGEMDMRPGDEDADVLREESREYDQEEFRYDMDEGNINSEEEETRQSDLQD
partner: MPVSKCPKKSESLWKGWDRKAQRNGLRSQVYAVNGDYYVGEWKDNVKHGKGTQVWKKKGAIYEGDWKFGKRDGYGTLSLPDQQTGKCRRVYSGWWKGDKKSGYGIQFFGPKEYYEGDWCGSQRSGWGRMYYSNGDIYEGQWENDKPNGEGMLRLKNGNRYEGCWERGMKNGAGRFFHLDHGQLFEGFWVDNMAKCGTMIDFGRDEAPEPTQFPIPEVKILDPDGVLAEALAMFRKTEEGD
B8: Nuclear autoantigen Sp-100 (Homo sapiens), P23497 (parent)
chain: MAGGGGDLSTRRLNECISPVANEMNHLPAHSHDLQRMFTEDQGVDDRLLYDIVFKHFKRNKVEISNAIKKTFPFLEGLRDRDLITNKMFEDSQDSCRNLVPVQRVVYNVLSELEKTFNLPVLEALFSDVNMQEYPDLIHIYKGFENVIHDKLPLQESEEEEREERSGLQLSLEQGTGENSFRSLTWPPSGSPSHAGTTPPENGLSEHPCETEQINAKRKDTTSDKDDSLGSQQTNEQCAQKAEPTESCEQIAVQVNNGDAGREMPCPLPCDEESPEAELHNHGIQINSCSVRLVDIKKEKPFSNSKVECQAQARTHHNQASDIIVISSEDSEGSTDVDEPLEVFISAPRSEPVINNDNPLESNDEKEGQEATCSRPQIVPEPMDFRKLSTFRESFKKRVIGQDHDFSESSEEEAPAEASSGALRSKHGEKAPMTSRSTSTWRIPSRKRRFSSSDFSDLSNGEELQETCSSSLRRGSGSQPQEPENKKCSCVMCFPKGVPRSQEARTESSQASDMMDTMDVENNSTLEKHSGKRRKKRRHRSKVNGLQRGRKKDRPRKHLTLNNKVQKKRWQQRGRKANTRPLKRRRKRGPRIPKDENINFKQSELPVTCGEVKGTLYKERFKQGTSKKCIQSEDKKWFTPREFEIEGDRGASKNWKLSIRCGGYTLKVLMENKFLPEPPSTRKKRILESHNNTLVDPCEEHKKKNPDASVKFSEFLKKCSETWKTIFAKEKGKFEDMAKADKAHYEREMKTYIPPKGEKKKKFKDPNAPKRPPLAFFLFCSEYRPKIKGEHPGLSIDDVVKKLAGMWNNTAAADKQFYEKKAAKLKEKYKKDIAAYRAKGKPNSAKKRVVKAEKSKKKKEEEEDEEDEQEEENEEDDDK
partner: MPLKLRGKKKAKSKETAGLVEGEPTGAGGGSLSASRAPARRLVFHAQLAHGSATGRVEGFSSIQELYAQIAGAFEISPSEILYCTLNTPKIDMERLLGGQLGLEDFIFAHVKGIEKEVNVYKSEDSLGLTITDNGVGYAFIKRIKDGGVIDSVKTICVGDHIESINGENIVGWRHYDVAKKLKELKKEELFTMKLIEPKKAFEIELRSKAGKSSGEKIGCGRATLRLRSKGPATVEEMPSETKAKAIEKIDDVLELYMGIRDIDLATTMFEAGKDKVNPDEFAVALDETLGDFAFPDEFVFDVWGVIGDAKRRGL

Variants of: B1
Settings: with ZRSR2, Q15696

effect of a mutation on the interaction | Variant
disrupting interaction strength | G242R
with no effect | V182M

Variants of: B2
Settings: with leg8_human LGALS8, O00214
Sequence of leg8_human LGALS8, O00214 (O00214 whole entry): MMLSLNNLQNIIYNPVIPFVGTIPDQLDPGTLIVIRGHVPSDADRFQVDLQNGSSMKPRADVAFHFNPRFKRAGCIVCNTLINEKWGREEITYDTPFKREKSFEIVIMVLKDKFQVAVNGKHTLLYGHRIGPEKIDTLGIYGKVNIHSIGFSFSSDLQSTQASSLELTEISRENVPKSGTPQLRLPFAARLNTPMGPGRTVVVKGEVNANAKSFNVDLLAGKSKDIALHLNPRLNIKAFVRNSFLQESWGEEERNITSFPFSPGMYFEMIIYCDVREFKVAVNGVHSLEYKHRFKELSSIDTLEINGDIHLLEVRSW

effect of a mutation on the interaction | Variant
disrupting interaction strength | F378S

Variants of: B3
Settings: with zn363_human RCHY1, Q96PM5

effect of a mutation on the interaction | Variant
with no effect | A115T
with no effect | R74Q

Variants of: B4
Settings: with gmppb_human GMPPB

effect of a mutation on the interaction | Variant
with no effect | V156I

Variants of: B5
Settings: with lhx4_human LHX4, Q969G2

effect of a mutation on the interaction | Variant
with no effect | K201N

Variants of: B6
Settings: with lnx2_human LNX2, Q8N448

effect of a mutation on the interaction | Variant
with no effect | G8R

Variants of: B7
Settings: with morn3_human MORN3, Q6PF18

effect of a mutation on the interaction | Variant
with no effect | G144R
with no effect | G248R

Variants of: B8
Settings: with gipc2_human GIPC2, Q8TF65

effect of a mutation on the interaction | Variant
with no effect | M433V
